Data reported in patent publication US20210355220A1 (TIKCRO TECHNOLOGIES, published 2021).

Target: T1, Mouse (Mus musculus) CTLA-4 on HEK293 cells (Mus musculus, UniProt P09793 36-223)
T1 construct: whole, on cells; also called mouse CTLA-4
Experiment: flow cytometry on HEK293 cells transiently expressing mouse CTLA-4, reference tremelimumab
Experimental: Macaque (Macaca fascicularis), pig (Sus scrofa) and mouse (Mus musculus) CTLA-4 proteins were transiently expressed on the surface of HEK293 cells. […] Binding was measured using FACS and analyzed.

Ratio Tremelimumab:Ab55h of EC50: 3 fold
B1: Ab55h (antibody, V domains shown)
VH: QVQLQESGPGLVKPSETLSLTCAVSGYSISGDYYWGWIRQPPGKGLEWIGSIYHSGYTYYNPSLKSRVTISVDTSKNQFSLKLSSVTAADTAVYYCARDSGWYVIAFDYWGQGTLVTVSS
VL: EIVMTQSPATLSVSPGERATLSCRASQSVSSNLAWYQEKPGQAPRLLIYGASTRATGIPARFSGSGSGTEFTLTISSLQSEDFAVYYCQQYNNWPPLTFGGGTKVEIK
notes: Human form, compared with an hIgG1 isotype control
